According to publication PMC7762955, “Antibiotic binding releases autoinhibition of the TipA multidrug-resistance transcriptional regulator” (The Journal of Biological Chemistry, 2020):
Numbering of substitutions follows the chain as printed. Names may count otherwise.

Tests used:
[1] = molecular target: SkgA (stationary-phase regulation of KatG protein), Caulobacter crescentus TipA-class transcriptional regulator, full length (Caulobacter crescentus); assay: not stated; SkgA in solution (Fig. S2A); method not given
[2] = molecular target: SkgACC (S16C/E133C), double-cysteine mutant of SkgA (Caulobacter crescentus); assay: cross-linking; disulfide bonds between introduced cysteines; reduced and nonreduced 15% SDS-PAGE, Coomassie Brilliant Blue staining
[3] = molecular target: the molecule itself; assay: SEC; analytical SEC, Superdex 200 10/300, 40 μM protein, 20 mM Tris-HCl pH 7.5, 150 mM NaCl, 1 mM DTT
[4] = molecular target: the molecule itself; assay: cross-linking; disulfide bonds between introduced cysteines; reduced and nonreduced 15% SDS-PAGE, Coomassie Brilliant Blue staining
[5] = molecular target: tipA promoter DNA (ptipA); assay: Fluorescence polarization assay, tipA promoter DNA binding; design: species or system Streptomyces lividans; conditions: apo, FPA; for Kd: read-out: Kd, affinity with the tipA promoter DNA (ptipA)
Protocol: (§1) Fluorescence polarization assays (FPAs) were performed to test the structure-based hypothesis that α6–α7 plays a key role in communication between the ligand-binding and DNA-binding regions. […] Parallel experiments were also performed for Mta and SkgA proteins, and consistent results were obtained.
(§2) FPAs were performed in buffer consisting of 20 mM Tris-HCl, pH 7.5, 200 mM NaCl and 5% (v/v) glycerol at 298 K using a SpectraMax M5 microplate reader system (Molecular Devices, San Jose, CA, USA). The wavelengths of fluorescence excitation and emission were 486 and 525 nm, respectively. 26-bp dsDNA from the −10 and −35 regions of the tipA, mta, and skgA promoters with the sequences […], […], and […] were synthesized with a 5′-carboxyfluorescein label for the respective assays with TipAL, Mta, and SkgA proteins. For assays with thiostrepton supplementation, proteins were incubated with thiostrepton (Sigma) at a 1:1 ratio for 15 min prior to mixing with DNA in wells. Each well of a 384-well plate contained 10 nM of a fluorescently labeled DNA probe and different amounts of proteins with a final volume of 80 μl. DNA-free controls were included, and three replicates were performed for each reaction for each assay. The fluorescence polarization ΔP (in mP units) was calculated and fitted according to a one-site specific binding model using GraphPad Prism7 (GraphPad Software) with the function ΔP = ΔPmax[protein]/(Kd + [protein]).

mta promoter DNA = assay: Fluorescence polarization assay, mta promoter DNA binding; design: species or system Bacillus subtilis; conditions: apo, FPA; for Kd: read-out: Kd, affinity with mta promoter DNA
Protocol: as §1, §2

[6] = no antibiotic, 10 nM 5'-carboxyfluorescein-labeled 26-bp dsDNA, 20 mM Tris-HCl pH 7.5, 200 mM NaCl, 5% glycerol, 298 K, ex 486/em 525 nm, one-site binding fit, three replicates, n.b. = printed in picture, not defined
[7] = 10 nM 5'-carboxyfluorescein-labeled 26-bp dsDNA, 20 mM Tris-HCl pH 7.5, 200 mM NaCl, 5% glycerol, 298 K, ex 486/em 525 nm, one-site binding fit, three replicates, n.b. = printed in picture, not defined

With “SkgA (stationary-phase regulation of KatG protein), Caulobacter crescentus TipA-class transcriptional regulator, full length (natural protein)” the stoichiometry N [1] was 2.

“SkgACC (S16C/E133C), double-cysteine mutant of SkgA (natural protein)” was tested, and the stoichiometry N [2] was 2.

B1: TipAL, full-length thiostrepton-induced protein A of Streptomyces lividans (natural protein, UniProt P0A4T9-1 1-253, looked up)
chain: MSYSVGQVAGFAGVTVRTLHHYDDIGLLVPSERSHAGHRRYSDADLDRLQQILFYRELGFPLDEVAALLDDPAADPRAHLRRQHELLSARIGKLQKMAAAVEQAMEARSMGINLTPEEKFEVFGDFDPDQYEEEVRERWGNTDAYRQSKEKTASYTKEDWQRIQDEADELTRRFVALMDAGEPADSEGAMDAAEDHRQGIARNHYDCGYEMHTCLGEMYVSDERFTRNIDAAKPGLAAYMRDAILANAVRHTP
notes: also called WT TipAL; full-length TipAL; source: E. coli BL21 (DE3), purified (nickel-nitrilotriacetic acid, Superdex 200 SEC)
For B1, the “stoichiometry N” value [3] was 2.

B2: TipALCC (T15C/E134C), double-cysteine mutant of TipAL (natural protein, Streptomyces lividans, UniProt P0A4T9-1 1-253, looked up)
chain: B1 chain with T15C, E134C
modifications: disulfide bonds between the introduced cysteines of two protomers (nonreduced sample)
notes: source: E. coli BL21 (DE3), purified (nickel-nitrilotriacetic acid, Superdex 200 SEC)
With B2 the “stoichiometry N” value [4] was 2.

B3: TipAL: full-length S. lividans TipA transcriptional regulatory protein (protein)
chain: B1 chain
modifications: left off: His6, end not stated, state not stated
notes: full-length S. lividans TipA transcriptional regulatory protein
Work on B3 yielded a Kd [5, 6] of 380 ± 56 nM.

B4: TipALCC (protein)
chain: B1 chain with T15C, E134C
modifications: disulfide bonds between the introduced cysteines of two protomers (nonreduced sample); left off: His6, end not stated, state not stated
With B4 the “ptipA DNA-binding ability” value ([5]; double-cysteine mutant) was “complete loss of DNA-binding ability” and the “Kd, affinity with the tipA promoter DNA (ptipA)” value [5, 6] was “n.b”.

B5: MtaH7: truncated protein containing the α6–α7 region, Mta residues 1–144 (protein, UniProt P71039 1-144, looked up, fragment)
chain: MKYQVKQVAEISGVSIRTLHHYDNIELLNPSALTDAGYRLYSDADLERLQQILFFKEIGFRLDEIKEMLDHPNFDRKAALQSQKEILMKKKQRMDEMIQTIDRTLLSVDGGETMNKRDLFAGLSMKDIEEHQQTYADEVRKLYG
In the case of B5, the “lower DNA-binding affinity than N-terminal truncation” value (mta promoter DNA; MtaH7 vs MtaN, range printed jointly for the three H7 truncations) is reported as 4–7 fold and the Kd (mta promoter DNA; [7]) is reported as 467 ± 67.4 nM.

B6: TipAN (TipAL residues 1-109), N terminus of TipAL (domain or fragment, Streptomyces lividans, UniProt P0A4T9-1 1-109, looked up)
chain: MSYSVGQVAGFAGVTVRTLHHYDDIGLLVPSERSHAGHRRYSDADLDRLQQILFYRELGFPLDEVAALLDDPAADPRAHLRRQHELLSARIGKLQKMAAAVEQAMEARS
notes: its limits may differ from this construct; source: E. coli BL21 (DE3), purified (nickel-nitrilotriacetic acid, Superdex 200 SEC)
B6 was tested, and the “stoichiometry N” value [3] was 2.

B7: TipAH7 (TipAL residues 1-140), TipAN plus the α6-α7 region (domain or fragment, Streptomyces lividans, UniProt P0A4T9-1 1-140, looked up)
chain: MSYSVGQVAGFAGVTVRTLHHYDDIGLLVPSERSHAGHRRYSDADLDRLQQILFYRELGFPLDEVAALLDDPAADPRAHLRRQHELLSARIGKLQKMAAAVEQAMEARSMGINLTPEEKFEVFGDFDPDQYEEEVRERWG
notes: as for B2
With B7 the “stoichiometry N” value [3] was 2.

B8: TipAH7: truncated protein consisting of TipAN and the α6–α7 region, TipAL residues 1–140 (protein)
chain: B7 chain
modifications: left off: His6, end not stated, state not stated
In the case of B8, the “lower DNA-binding affinity than N-terminal truncation” value ([5]; TipAH7 vs TipAN, range printed jointly for the three H7 truncations) is reported as 4–7 fold and the Kd [5, 6] is reported as 318 ± 58.5 nM.

B9: MtaCC (S15C/E138C), double-cysteine mutant of Mta (natural protein, Bacillus subtilis, UniProt P71039 1-257, looked up)
chain: MKYQVKQVAEISGVCIRTLHHYDNIELLNPSALTDAGYRLYSDADLERLQQILFFKEIGFRLDEIKEMLDHPNFDRKAALQSQKEILMKKKQRMDEMIQTIDRTLLSVDGGETMNKRDLFAGLSMKDIEEHQQTYADCVRKLYGKEIAEETEKRTSAYSADDWRTIMAEFDSIYRRIAARMKHGPDDAEIQAAVGAFRDHICQYHYDCTLDIFRGLGEVYITDERFTDSINQYGEGLAAFLREAIIIYCDHQENPRP
modifications: disulfide bonds between the introduced cysteines of two protomers (nonreduced sample)
notes: as for B2
B9 was tested, and the “stoichiometry N” value [4] was 2.

B10: MtaCC (protein)
chain: B9 chain
modifications: disulfide bonds between the introduced cysteines of two protomers (nonreduced sample); left off: His6, end not stated, state not stated
With B10 the “specific binding with mta promoter DNA” value (mta promoter DNA; double-cysteine mutant) was “did not show any specific binding” and the “Kd, affinity with mta promoter DNA” value (mta promoter DNA; [7]) was “n.b”.

B11: Mta: B. subtilis multidrug transporter activation protein, TipA-class (protein)
chain: B9 chain with C15S, C138E
modifications: left off: His6, end not stated, state not stated
B11 showed a Kd (mta promoter DNA; [7]) of 496 ± 70.3 nM.
